Data taken from patent US20170129921A1 (University of California, published 2017).
Like-named read-outs stand apart in the source and are kept apart here.

T1: C5a receptor 1 (human, UniProt P21730 1-350)
T1 construct: whole, on cells; Also used here for native C5a1 on human macrophages; also called C5a1; CD88
T1 sequence (looked up): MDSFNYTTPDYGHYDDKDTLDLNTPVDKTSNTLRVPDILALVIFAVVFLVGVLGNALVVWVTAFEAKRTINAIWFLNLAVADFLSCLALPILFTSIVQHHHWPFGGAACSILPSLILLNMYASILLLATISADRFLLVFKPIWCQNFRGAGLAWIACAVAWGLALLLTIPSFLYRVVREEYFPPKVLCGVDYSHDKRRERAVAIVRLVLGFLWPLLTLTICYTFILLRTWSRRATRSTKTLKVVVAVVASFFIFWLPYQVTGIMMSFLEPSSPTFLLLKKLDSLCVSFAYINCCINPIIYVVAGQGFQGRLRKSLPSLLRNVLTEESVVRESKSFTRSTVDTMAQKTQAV


Experiments:
C5a receptor 1 = target: T1, C5a receptor 1; assay: 125I-C5a displacement on C5aR1 membranes
C5a2-Venus [1] = target: T2, C5a2-Venus (UniProt Q9P296 1-337); assay: cell-based or functional assay
T2 sequence (Q9P296 whole entry): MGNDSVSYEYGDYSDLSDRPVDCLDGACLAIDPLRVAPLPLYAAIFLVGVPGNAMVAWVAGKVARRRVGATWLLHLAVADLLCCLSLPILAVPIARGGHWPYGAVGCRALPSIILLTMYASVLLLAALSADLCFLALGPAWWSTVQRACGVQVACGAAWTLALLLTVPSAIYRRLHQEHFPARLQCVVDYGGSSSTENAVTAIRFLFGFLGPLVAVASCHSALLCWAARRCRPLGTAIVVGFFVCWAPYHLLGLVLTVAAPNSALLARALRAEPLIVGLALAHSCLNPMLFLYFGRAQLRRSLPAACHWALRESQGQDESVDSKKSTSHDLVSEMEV

Human C5a receptor 2 [2] = target: T3, Human C5a receptor 2 (human, UniProt Q9P296 1-337); assay: 125I-C5a displacement, SPA on Flp-In CHO-C5a2 membranes
T3 construct: whole, on cells; also used here for native C5a2 on human monocyte derived macrophages and for the human C5a2 of the DiscoveRx PathHunter kit; also called C5a2; C5L2
T3 sequence (Q9P296 whole entry): as above
Procedure: P32 and P59 were previously shown to have no activity (either as an agonist or antagonist) up to a concentration of 100 μM, when the library was previously screened for activity at C3aR and C5a1²⁷.
(§1) C5a2 receptor binding studies were performed using a modification of a previously described scintillation proximity assay (SPA) method⁴⁸. Briefly, C5a2 SPA studies were performed in 96-well white isoplates with clear flat bottoms (Perkin Elmer, Waltham, Mass., USA). SPA beads (200 μg/well) were added, following the addition of various concentrations of competing ligands or buffer (6 pM to 500 μM) in a total volume of 80 μL of assay buffer (50 mM Tris-HCl, pH 7.4, 0.5% BSA, 5 mM MgCl₂, 1 mM CaCl₂). ¹²⁵I-C5a (˜20 pM) (specific activity, 2200 Ci mmol⁻¹) (Perkin Elmer) was added to C5a2 membrane preparations (˜2 μg/well). The final reaction volume per well comprised 20 μL of ligand/buffer, 20 μL of SPA beads, 20 μl of membrane and the assay was initiated by the addition of 20 μL of ¹²⁵I-C5a. The plate was then sealed using TopSeal-A (Perkin Elmer) sealing film and incubated with shaking for 1 h at room temperature. Radioligand binding was then assessed for 30 s/well using a 1450 Microbeta scintillation counter (Perkin Elmer).

C5a2-Venus [3] = target: T2, C5a2-Venus; assay: cell-based or functional assay; remark: listed apart in the source
Human C5a receptor 2 [4] = target: T3, Human C5a receptor 2; assay: 125I-C5a displacement, SPA on Flp-In CHO-C5a2 membranes; remark: listed apart in the source
Procedure: To further address this issue, C5a2 SPA was used to test for the binding of C3a or C3a-des arg to C5a2.
as §1

Binder | Ki (C5a receptor 1) [µM] | fold higher efficacy of β-arrestin 2 recruitment than the affinity for C5a2 (C5a2-Venus [1]) [fold] | Ki (Human C5a receptor 2 [2]) [µM] | C5a2-β-arrestin 2 BRET Recruitment (% of C5a) (C5a2-Venus [3]) | Ki (Human C5a receptor 2 [4]) [µM]
Ac-RHYPYWR-OH (Synthetic, computationally designed heptapeptide based on the C-terminus of C5a) [Peptide P32, Ac-RHYPYWR-OH] | 234 | ~37 | 223 | 28.8 % of C5a | 
Human recombinant C5a (ligand, UniProt P01031 678-751, looked up, also called native C5a) TLQKKIEEIAAKYKHSVVKKCCYDGACVNNDETCEQRAARISLGPRCIKAFTECCVVASQLRANISHKDMQLGR |  |  | 0.0013 | 100 % of C5a | 
Human isolated C5a-des Arg (ligand, UniProt P01031 678-750, looked up) TLQKKIEEIAAKYKHSVVKKCCYDGACVNNDETCEQRAARISLGPRCIKAFTECCVVASQLRANISHKDMQLG |  |  |  |  | 0.0015
Ac-LIRLWR-OH (Synthetic, computationally designed hexapeptide based on the C-terminus of C5a) [Peptide P59, Ac-LIRLWR-OH] | 466 | ~6 | 48 | 52.9 % of C5a | 
